Test results: publication PMC5942779, “Identification of a peptide inhibitor for the histone methyltransferase WHSC1” (PLoS ONE, 2018)
Square brackets hold non-standard residues; d marks the D form. Nle = CCCC[C@H](N)C(=O)O

Tests used:
Test in all cases: cell-based or functional assay
SMYD2 = SMYD2 (UniProt Q9NRG4 1-433)
PRMT6 = PRMT6 (UniProt Q96LA8 1-375)
SETDB1 = SETDB1 (UniProt Q15047 1-1291)
EZH2 = EZH2 (UniProt Q15910 1-746)
EZH1 = EZH1 (UniProt Q92800 1-747)
G9a = G9a (UniProt Q96KQ7 1-1210)
Chain of G9a (Q96KQ7 whole entry): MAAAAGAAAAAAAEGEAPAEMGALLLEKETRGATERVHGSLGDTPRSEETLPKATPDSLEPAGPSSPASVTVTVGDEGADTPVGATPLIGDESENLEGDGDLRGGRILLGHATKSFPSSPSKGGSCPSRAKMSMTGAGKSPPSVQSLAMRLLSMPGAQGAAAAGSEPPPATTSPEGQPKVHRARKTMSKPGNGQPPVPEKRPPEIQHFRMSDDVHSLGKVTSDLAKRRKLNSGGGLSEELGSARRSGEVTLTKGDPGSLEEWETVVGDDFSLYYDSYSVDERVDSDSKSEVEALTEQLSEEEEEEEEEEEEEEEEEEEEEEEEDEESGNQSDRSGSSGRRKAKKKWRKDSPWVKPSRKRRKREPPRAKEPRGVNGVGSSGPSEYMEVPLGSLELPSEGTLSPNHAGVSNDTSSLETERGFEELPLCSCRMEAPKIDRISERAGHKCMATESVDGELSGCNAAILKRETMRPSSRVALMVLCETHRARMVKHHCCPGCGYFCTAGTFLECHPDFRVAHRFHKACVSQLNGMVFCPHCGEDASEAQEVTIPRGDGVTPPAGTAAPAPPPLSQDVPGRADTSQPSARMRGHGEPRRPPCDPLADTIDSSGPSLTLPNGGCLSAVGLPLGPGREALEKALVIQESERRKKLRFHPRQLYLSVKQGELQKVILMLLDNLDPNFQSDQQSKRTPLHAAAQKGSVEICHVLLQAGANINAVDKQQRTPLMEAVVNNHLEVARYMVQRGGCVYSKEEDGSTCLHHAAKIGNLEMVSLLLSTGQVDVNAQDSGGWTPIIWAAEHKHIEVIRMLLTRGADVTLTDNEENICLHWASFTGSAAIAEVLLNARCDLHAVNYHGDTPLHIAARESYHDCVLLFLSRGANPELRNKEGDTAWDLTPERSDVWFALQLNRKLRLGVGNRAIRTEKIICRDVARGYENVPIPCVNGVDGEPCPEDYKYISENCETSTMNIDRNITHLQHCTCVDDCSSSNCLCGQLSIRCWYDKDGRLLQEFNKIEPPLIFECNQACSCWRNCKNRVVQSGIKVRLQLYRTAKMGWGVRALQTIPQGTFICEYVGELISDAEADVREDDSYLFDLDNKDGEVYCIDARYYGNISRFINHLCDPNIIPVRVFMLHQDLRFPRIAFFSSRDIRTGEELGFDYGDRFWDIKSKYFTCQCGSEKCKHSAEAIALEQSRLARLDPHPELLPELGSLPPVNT

Measured: Biochemical IC50 (enzymatic inhibition, panel of HMT enzymes)

Chain of SMYD2 (Q9NRG4 whole entry): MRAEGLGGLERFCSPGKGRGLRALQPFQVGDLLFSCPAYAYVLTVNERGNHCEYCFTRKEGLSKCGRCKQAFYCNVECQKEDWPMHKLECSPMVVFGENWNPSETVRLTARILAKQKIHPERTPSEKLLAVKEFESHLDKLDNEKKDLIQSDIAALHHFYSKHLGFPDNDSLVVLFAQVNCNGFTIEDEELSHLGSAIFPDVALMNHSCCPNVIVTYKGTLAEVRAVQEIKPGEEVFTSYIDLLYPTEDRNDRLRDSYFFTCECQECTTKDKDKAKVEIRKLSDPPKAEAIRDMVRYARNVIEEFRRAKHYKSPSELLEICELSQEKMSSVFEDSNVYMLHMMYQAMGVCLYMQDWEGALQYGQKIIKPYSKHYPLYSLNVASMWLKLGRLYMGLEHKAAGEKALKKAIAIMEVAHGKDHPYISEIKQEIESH
Chain of EZH2 (Q15910 whole entry): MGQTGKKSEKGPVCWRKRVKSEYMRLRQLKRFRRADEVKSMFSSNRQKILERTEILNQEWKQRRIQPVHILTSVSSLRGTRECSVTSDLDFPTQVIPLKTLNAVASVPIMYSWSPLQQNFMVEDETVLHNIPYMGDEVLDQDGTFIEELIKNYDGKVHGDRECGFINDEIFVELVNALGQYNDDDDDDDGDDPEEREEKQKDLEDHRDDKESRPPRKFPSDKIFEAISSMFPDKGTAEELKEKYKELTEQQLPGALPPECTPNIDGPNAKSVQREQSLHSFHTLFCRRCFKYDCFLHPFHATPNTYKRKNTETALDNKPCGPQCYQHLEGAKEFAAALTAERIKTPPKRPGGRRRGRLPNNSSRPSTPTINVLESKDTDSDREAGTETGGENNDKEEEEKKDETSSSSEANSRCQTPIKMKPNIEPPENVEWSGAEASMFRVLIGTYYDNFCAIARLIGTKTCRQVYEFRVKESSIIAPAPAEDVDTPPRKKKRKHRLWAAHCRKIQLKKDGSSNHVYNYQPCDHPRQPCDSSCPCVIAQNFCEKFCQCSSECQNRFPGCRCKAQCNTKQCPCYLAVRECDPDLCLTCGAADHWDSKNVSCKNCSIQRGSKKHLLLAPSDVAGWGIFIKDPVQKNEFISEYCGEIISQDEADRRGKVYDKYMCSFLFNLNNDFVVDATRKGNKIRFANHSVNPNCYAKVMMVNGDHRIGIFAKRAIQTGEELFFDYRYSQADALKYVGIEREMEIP
Chain of EZH1 (Q92800 whole entry): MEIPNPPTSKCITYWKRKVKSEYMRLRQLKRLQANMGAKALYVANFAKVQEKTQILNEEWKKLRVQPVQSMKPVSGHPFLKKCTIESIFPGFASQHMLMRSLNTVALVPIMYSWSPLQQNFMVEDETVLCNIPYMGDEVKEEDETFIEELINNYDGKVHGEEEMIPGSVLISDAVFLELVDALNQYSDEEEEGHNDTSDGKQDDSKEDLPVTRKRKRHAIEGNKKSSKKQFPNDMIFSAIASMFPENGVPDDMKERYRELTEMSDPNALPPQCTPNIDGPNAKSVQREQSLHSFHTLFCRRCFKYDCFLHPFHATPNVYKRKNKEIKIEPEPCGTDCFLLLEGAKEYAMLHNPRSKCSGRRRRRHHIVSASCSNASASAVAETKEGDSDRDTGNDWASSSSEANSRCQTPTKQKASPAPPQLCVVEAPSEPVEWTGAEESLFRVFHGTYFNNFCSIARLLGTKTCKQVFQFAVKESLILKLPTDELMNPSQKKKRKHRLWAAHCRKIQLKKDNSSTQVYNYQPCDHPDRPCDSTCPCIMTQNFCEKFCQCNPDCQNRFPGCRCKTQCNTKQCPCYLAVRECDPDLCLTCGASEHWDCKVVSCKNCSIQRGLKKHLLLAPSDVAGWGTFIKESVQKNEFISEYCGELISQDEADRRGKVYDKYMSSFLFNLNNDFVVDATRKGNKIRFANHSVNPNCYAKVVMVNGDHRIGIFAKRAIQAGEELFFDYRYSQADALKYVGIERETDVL
Chain of PRMT6 (Q96LA8 whole entry): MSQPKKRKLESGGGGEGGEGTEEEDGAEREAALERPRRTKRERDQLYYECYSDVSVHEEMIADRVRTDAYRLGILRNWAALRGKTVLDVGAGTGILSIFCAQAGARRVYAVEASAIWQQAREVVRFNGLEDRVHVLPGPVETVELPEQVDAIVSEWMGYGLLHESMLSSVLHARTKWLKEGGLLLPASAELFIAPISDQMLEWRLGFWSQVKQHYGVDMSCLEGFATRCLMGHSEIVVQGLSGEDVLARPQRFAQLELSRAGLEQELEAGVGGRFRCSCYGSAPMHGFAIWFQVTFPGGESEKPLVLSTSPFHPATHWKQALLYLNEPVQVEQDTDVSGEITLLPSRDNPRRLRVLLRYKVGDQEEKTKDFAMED

Ac-GV[Nle]RI-NH2 [PTD2]
> 200 µM: SMYD2 | PRMT6 | SETDB1 | EZH2 | EZH1 | G9a
